The numbers were not newly measured in patent US12441709B2, “Therapeutic compounds” (INDIVIOR UK LIMITED, priority 2016, dated 2025), which cites them from elsewhere.

No end group written: not given here. Bounds are passed on as bounds.

In the data set the target is T1, orexin-1 (OX1) (Homo sapiens, UniProt O43613).
T1 sequence (O43613 1-425): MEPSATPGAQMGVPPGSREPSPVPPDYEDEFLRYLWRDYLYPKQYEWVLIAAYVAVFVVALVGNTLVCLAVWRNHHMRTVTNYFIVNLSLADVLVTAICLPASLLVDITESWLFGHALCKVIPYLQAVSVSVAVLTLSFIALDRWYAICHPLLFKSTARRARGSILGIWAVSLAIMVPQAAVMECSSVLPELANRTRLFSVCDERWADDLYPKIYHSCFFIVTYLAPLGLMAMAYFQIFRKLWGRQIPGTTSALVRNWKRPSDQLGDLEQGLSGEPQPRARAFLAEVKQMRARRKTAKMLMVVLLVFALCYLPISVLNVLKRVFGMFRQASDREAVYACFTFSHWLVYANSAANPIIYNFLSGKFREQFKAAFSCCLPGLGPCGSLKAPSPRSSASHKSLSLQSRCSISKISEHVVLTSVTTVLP
To be noted: affinity of OxA relative to OxB at OX1; literature reference (2); cited from earlier work.

As to “OxA: neuropeptide Orexin-A, a 33 amino acid polypeptide, agonist on OX1 and OX2 receptors (QPLPDCCRQKTCSCRLYELLHGAGNHAAGILTL; not fully specified (residue 1, C-terminus, bridges); cysteine pairing not given here; UniProt O43612 34-66, looked up)”, the “higher affinity than OxB” value is recorded as more than 10 fold.
